Experiments:
Format in all cases: physicochemical
[1] = Solubility of the product in water; details: product of small scale reaction (0.5 g), 2% diacerhein functionalization
Protocol: 0.044 g Diacerhein were suspended into 20 mL dry THF, followed by addition of 0.022 g CDI dissolved in 2 mL THF. The reaction mixture was stirred for 1 hour at room temperature until a clear solution was obtained. 0.5 g cryo-micronized HA powder were added and the suspension stirred at 70° C. for 24 hours. The reaction mixture was then filtered through a G4-fritte and washed with 150 mL dry THF. The non-soluble remaining HA product was slightly yellowish. By redissolving the product in water small amounts of remaining dispersed diacerhein could be removed by centrifugation to yield a visually clear and transparent aqueous solution.
The obtained product was analyzed by H^1-NMR-, HPLC-, UV- and LC-MS/MS-analyses, and the following results were obtained. The reaction resulted a 100% yield of HA-polymer, close to its original molecular weight with a 2% diacerhein-fimctionalization. No significant degradation of HA in the final product could be observed. […] For further qualitative characterization the HA-diacerhein product was enzymatically hydrolysed, which lead to HA-fragments (oligomers) with and without diacerhein, which could be analysed by HPLC analysis. Furthermore HA-fragments with and without diacerhein attached were identified by LC-MS/MS.

[2] = pH determination of the 1% solution; details: 1% (weight/weight) solution in MilliQ water; Metrohm 691 pH-Meter, Biotrode glass electrode
Protocol: pH of the above described 1% solution was determined to be 5.5 (Metrohm 691 ph-Meter operated with a Biotrode glass electrode; according to specifications received for the initial hyaluronic acid provided by TRB, pH of a 0.5% solution should be between 5.0 and 8.5).

[3] = Solution appearance of a 1% (weight/weight) solution in MilliQ water; details: approx. 10 mg freeze-dried compound in 1 ml MilliQ water, after storage or centrifugation at 14'000 rpm for 10 min
Protocol: A 1% (weight/weight) solution was obtained by dissolving approximately 10 mg of freeze-dried compound into 1 ml of pure MilliQ water.

Row | Substance | solubility in water [1] | pH of 1% solution [2] | solution appearance / precipitation [3]
1 | HA-Diacerhein [Example 1] | soluble in water |  | 
2 | HA-Diacerhein [Example 2] |  | 5.5 | no precipitation occurred
